The values that follow are results of earlier work, collected in PMC5691641.

By Kd is commonly meant the free concentration of one partner at which half of the binding sites on the other are occupied at equilibrium, for simple one-to-one binding.

The target in the data set is Bax (Homo sapiens) (UniProt Q07812).
Bax (Homo sapiens), sequence (Q07812 whole entry): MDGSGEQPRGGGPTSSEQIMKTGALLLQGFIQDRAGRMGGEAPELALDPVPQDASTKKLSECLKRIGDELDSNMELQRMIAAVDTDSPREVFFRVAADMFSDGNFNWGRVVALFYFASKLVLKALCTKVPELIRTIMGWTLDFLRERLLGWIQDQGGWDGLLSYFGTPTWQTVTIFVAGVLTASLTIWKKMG

vMIA, sequence (P16778 23-487): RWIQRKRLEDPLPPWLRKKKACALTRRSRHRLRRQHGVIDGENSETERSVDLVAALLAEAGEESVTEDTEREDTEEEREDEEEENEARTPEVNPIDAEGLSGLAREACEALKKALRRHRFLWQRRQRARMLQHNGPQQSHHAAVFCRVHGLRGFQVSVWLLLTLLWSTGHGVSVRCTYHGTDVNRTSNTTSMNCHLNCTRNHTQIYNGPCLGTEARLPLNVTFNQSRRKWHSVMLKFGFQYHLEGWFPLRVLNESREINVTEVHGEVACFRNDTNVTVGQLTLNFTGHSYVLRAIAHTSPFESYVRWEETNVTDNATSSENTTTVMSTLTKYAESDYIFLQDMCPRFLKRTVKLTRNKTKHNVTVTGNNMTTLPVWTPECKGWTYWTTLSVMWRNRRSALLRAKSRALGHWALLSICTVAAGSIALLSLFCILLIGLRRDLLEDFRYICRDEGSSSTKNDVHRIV

As to vMIA (from UniProt P16778), the dissociation constant Kd was 22 nM.
